Reference: the supplement of paper PMC9876800

Test system: peptide library, one residue held at a place counted from the S/T acceptor
Assay: relative phosphorylation of the sub-library (ratio to the mean residue at this position); human; higher = residue favoured
Summary of the method: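 Human or orthologue kinase constructs, purified and recombinant, were incubated under kinase-specific conditions in 384-well plates with biotinylated degenerate peptide sub-libraries. Each sub-library fixed one residue at one position around a central Ser/Thr. Incubations lasted 90 min with peptides at 50 μM and 50 μM ATP spiked with γ-32P-ATP, after which spots on streptavidin membranes were phosphorimaged and quantified by densitometry. Relative sub-library phosphorylation is a ratio to the mean residue at that position.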

Chain of MAP3K10, construct: aa1-449 (Q02779 1-449, looked up): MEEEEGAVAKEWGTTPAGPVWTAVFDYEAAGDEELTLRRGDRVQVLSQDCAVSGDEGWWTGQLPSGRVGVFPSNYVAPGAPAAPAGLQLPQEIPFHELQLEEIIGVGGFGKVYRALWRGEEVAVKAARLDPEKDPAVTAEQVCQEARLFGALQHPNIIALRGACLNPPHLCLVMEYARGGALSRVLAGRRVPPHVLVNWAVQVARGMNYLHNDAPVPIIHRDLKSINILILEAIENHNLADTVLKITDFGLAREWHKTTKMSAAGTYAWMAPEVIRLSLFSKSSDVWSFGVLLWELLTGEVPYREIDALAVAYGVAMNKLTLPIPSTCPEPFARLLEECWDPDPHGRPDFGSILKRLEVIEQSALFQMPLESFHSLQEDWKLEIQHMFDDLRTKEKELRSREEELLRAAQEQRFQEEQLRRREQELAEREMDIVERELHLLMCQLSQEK
Chain of SIK3, construct: aa1-307 (Q9Y2K2 1-307, looked up): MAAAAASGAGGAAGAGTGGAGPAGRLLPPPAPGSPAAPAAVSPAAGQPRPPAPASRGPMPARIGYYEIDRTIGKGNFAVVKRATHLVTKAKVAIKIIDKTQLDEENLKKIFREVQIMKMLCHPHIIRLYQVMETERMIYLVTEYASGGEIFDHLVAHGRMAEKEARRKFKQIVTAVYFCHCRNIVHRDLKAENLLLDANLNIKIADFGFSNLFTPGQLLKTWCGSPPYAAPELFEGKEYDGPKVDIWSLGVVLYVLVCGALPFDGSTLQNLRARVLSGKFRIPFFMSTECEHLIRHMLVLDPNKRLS

MAP3K10, construct: aa1-449 (from UniProt Q02779)
relative phosphorylation
Conditions	at +1	at +2	at +3	at +4	at -1	at -2	at -3	at -4	at -5
A fixed	0.988	0.921	1.06	1.24	0.881	0.969	1.12	1.23	1.48
D fixed	0.28	0.398	0.506	0.72	0.775	0.594	0.888	1.11	1.11
E fixed	0.404	0.392	0.439	0.573	0.65	0.584	0.827	0.909	0.764
F fixed	1.53	0.602	1.19	0.779	1.05	1.44	0.935	0.693	0.878
G fixed	0.999	0.749	1.42	1.43	0.603	0.911	1.28	1.43	1.39
H fixed	1.65	2.11	1.34	1.07	1.39	1.2	1.19	1.11	1.17
I fixed	0.774	0.445	0.773	0.705	0.65	0.505	0.484	0.541	0.596
K fixed	1.12	1.84	1.01	1.44	1.22	0.514	0.964	1.08	0.953
L fixed	0.764	0.561	0.897	0.75	0.973	0.789	0.731	0.698	0.712
M fixed	1.33	0.634	0.985	0.746	1.14	1.3	0.821	0.879	0.725
N fixed	0.977	1.07	1.06	1.06	1.23	1.08	1.54	1.17	1.01
P fixed	0.32	0.67	1.06	1.7	0.95	1.87	1.51	1.56	1.28
Q fixed	1.54	1.24	1.06	1.35	1.37	1.12	1.26	1.05	0.951
R fixed	1.35	2.26	0.966	0.912	1.09	0.569	0.762	0.957	1
V fixed	0.942	0.635	0.791	0.777	0.806	0.589	0.665	0.636	0.846
W fixed	1.05	1.09	1.28	0.923	1.07	1.5	0.997	1.09	1.24
Y fixed	0.978	1.39	1.16	0.832	1.15	1.47	1.02	0.843	0.884
pThr fixed	0.578	0.503	0.623	0.634	0.63	0.706	0.849	0.914	0.992
pTyr fixed	0.455	0.311	0.519	0.452	0.862	0.525	0.707	0.616	0.73

SIK3, construct: aa1-307 (from UniProt Q9Y2K2)
relative phosphorylation
Conditions	at +1	at +2	at +3	at +4	at -1	at -2	at -3	at -4	at -5
A fixed	0.723	1.19	0.654	0.581	1.02	1.77	0.786	1.12	1.32
D fixed	0.537	0.686	2.07	0.508	0.631	0.339	0.328	0.773	0.8
E fixed	0.747	0.583	0.643	0.374	0.495	0.272	0.353	0.768	0.692
F fixed	0.727	0.687	0.914	0.724	0.497	1.06	0.698	0.867	1.06
G fixed	0.646	0.775	0.505	0.546	2.72	1.28	0.684	1.36	1.16
H fixed	0.747	1.14	1.36	0.678	0.857	1.3	1.11	1.19	0.856
I fixed	1.12	0.923	0.555	2.59	0.364	0.507	0.399	0.637	0.861
K fixed	0.88	0.578	0.728	0.56	1.77	1.17	2.13	1.21	1.02
L fixed	1.21	0.987	0.824	4.53	0.691	0.364	0.497	0.662	1.58
M fixed	2.13	1.08	0.759	1.55	0.781	0.591	0.649	0.991	1.2
N fixed	1.29	1.4	3.64	0.597	1.25	0.65	0.57	0.895	0.733
P fixed	0.373	1.17	0.359	0.637	1.53	0.538	0.939	1.16	0.954
Q fixed	1.84	0.988	0.853	0.481	1.29	0.526	0.704	0.8	0.725
R fixed	1.1	0.956	0.688	0.459	1.4	1.45	4.8	1.73	1.5
V fixed	1.28	0.926	0.488	1.18	0.463	0.645	0.427	0.645	0.695
W fixed	0.795	1.97	0.851	0.581	0.486	2.92	1.26	1.21	0.973
Y fixed	0.877	0.961	1.1	0.42	0.756	1.62	0.658	0.987	0.868
pThr fixed	0.992	0.79	0.348	0.35	0.294	0.444	0.527	0.647	0.667
pTyr fixed	0.487	0.297	0.335	0.324	0.589	0.442	0.522	0.627	0.782

PRKACB, construct: Full length (from UniProt P22694)
relative phosphorylation
Conditions	at +1	at +2	at +3	at +4	at -1	at -2	at -3	at -4	at -5
A fixed	0.818	1.26	0.948	0.9	0.875	0.426	0.62	1.15	1.18
D fixed	0.607	1.56	1.15	1.36	0.667	0.196	0.231	0.657	0.772
E fixed	0.649	0.788	1.04	1.3	0.49	0.167	0.252	0.816	0.736
F fixed	0.811	0.684	0.72	0.689	0.455	0.209	0.213	0.486	0.594
G fixed	0.87	1.29	1.29	1.15	1.47	0.436	0.625	1.51	1.42
H fixed	1.22	1.7	1.45	1.05	1.22	0.786	1.34	1.27	1.22
I fixed	1.21	0.573	0.488	0.705	0.265	0.2	0.127	0.471	0.394
K fixed	1.06	0.797	0.927	0.89	1.92	3.26	2.66	1.93	2.25
L fixed	1.06	0.634	0.785	0.713	0.648	0.219	0.183	0.532	0.557
M fixed	1.46	0.701	0.79	0.747	0.856	0.25	0.204	0.782	0.601
N fixed	1.2	1.23	1.24	1.25	1.52	0.566	0.495	1.04	0.983
P fixed	0.382	1.29	1.58	1.74	1.44	0.271	0.824	1.19	1.21
Q fixed	1.3	1.23	1.22	1.34	1.17	0.555	0.715	1.04	0.97
R fixed	1.35	0.937	1.04	0.93	2.14	8.75	7.65	2.38	2.14
V fixed	0.892	0.59	0.517	0.877	0.446	0.191	0.184	0.482	0.605
W fixed	1.05	1.03	0.964	0.66	0.577	0.236	0.329	0.6	0.746
Y fixed	1.06	0.709	0.855	0.698	0.839	0.276	0.354	0.67	0.624
pThr fixed	0.988	0.988	0.984	1.67	0.443	0.319	0.474	0.789	0.727
pTyr fixed	1.06	1	1.24	1.37	0.979	0.276	0.451	0.775	0.82

STK39, construct: Full length (from UniProt Q9UEW8)
relative phosphorylation
Conditions	at +1	at +2	at +3	at +4	at -1	at -2	at -3	at -4	at -5
A fixed	0.382	0.623	0.889	0.918	0.783	0.729	0.996	1	1.13
D fixed	0.233	0.398	0.795	0.812	1.29	1.04	1.1	1.47	1.27
E fixed	0.266	0.234	0.96	0.651	1.05	0.826	0.895	1.36	1.07
F fixed	1.17	0.908	0.901	0.899	0.908	1.05	0.783	0.88	0.983
G fixed	0.24	0.824	1.06	1.27	0.606	0.888	0.933	1.2	1.07
H fixed	1.01	4.16	1.32	0.999	1.62	1.44	1.47	1.07	0.932
I fixed	2.61	0.696	0.654	0.739	0.638	0.409	0.615	0.672	0.679
K fixed	0.432	0.55	0.862	1.15	0.818	0.414	0.61	0.771	0.927
L fixed	1.56	0.65	1.01	0.921	1.32	0.721	0.646	0.76	0.619
M fixed	1.33	0.873	1.05	0.952	1.18	0.744	0.763	0.832	0.866
N fixed	0.453	1.08	1.27	1.18	1.34	1.29	1.59	1.02	0.95
P fixed	0.175	0.523	0.906	1.14	0.49	0.539	0.937	1.05	1.24
Q fixed	0.661	1.03	1.19	1.19	0.963	1.91	1.09	0.959	0.892
R fixed	0.517	0.824	1.06	1.18	1.04	0.529	0.677	0.831	0.96
V fixed	1.84	1.04	0.72	0.694	0.584	0.457	0.623	0.769	0.911
W fixed	2.89	0.987	1.16	1.37	1.06	1.17	1.03	1.18	1.17
Y fixed	1.23	1.61	1.19	0.933	1.3	2.84	2.24	1.17	1.34
pThr fixed	0.677	0.474	0.767	0.493	0.867	0.793	1.11	1.19	1.25
pTyr fixed	0.614	0.352	1	0.586	1.77	1.16	1.02	1.25	1.45
